Experimental data published in paper PMC11172311, “Structural and Interactional Analysis of the Flavonoid Pathway Proteins: Chalcone Synthase, Chalcone Isomerase and Chalcone Isomerase-like Protein” (International Journal of Molecular Sciences, 2024).

Assays:
[1] = target: Panicum virgatum chalcone synthase (PvCHS) (Panicum virgatum); assay: ITC; PvCHS in the well, PvCHIL in the syringe; 22 injections of 2 µL; PBS; with naringenin at 5x molar excess
[2] = target: Panicum virgatum chalcone synthase (PvCHS) (Panicum virgatum); assay: ITC; PvCHS in the well, PvCHIL in the syringe; 22 injections of 2 µL; PBS; no small molecule added
[3] = target: Panicum virgatum chalcone synthase (PvCHS) (Panicum virgatum); assay: as above; remark: listed apart in the source
[4] = target: Panicum virgatum chalcone synthase (PvCHS) (Panicum virgatum); assay: ITC; PvCHS in the well, PvCHIL in the syringe; 22 injections of 2 µL; PBS; with naringenin chalcone at 5x molar excess
[5] = target: Panicum virgatum chalcone synthase (PvCHS) (Panicum virgatum)
[6] = target: Panicum virgatum chalcone synthase (PvCHS) (Panicum virgatum); remark: listed apart in the source
[7] = target: Panicum virgatum chalcone isomerase-like protein (PvCHIL) (Panicum virgatum); assay: FRET or BRET; PvCHIL labelled with ATTO 488 (donor) held at 1 µM, PvCHS labelled with ATTO 550 (acceptor) gradually increased; PBS pH 7.4; spectra in triplicate
[8] = target: Panicum virgatum chalcone isomerase (PvCHI) (Panicum virgatum); assay: FRET or BRET; PvCHI labelled with ATTO 488 (donor) held at 1 µM, PvCHS labelled with ATTO 647N (acceptor) gradually increased (0.5 to 10 µM); PBS pH 7.4; spectra in triplicate
[9] = target: Panicum virgatum chalcone synthase (PvCHS) (Panicum virgatum); assay: crystal structure; PvCHS co-crystallised with naringenin and CoA, space group P1, four molecules in the unit cell; hanging drop, 277 K; data at 100 K

How did the Kd [1] turn out when “Panicum virgatum chalcone isomerase-like protein (PvCHIL) (natural protein)” was run?
The Kd was 7.46 µM.

And the dH [1]?
The dH was 22.3 kJ/mol.

What about the Kd [2] of the same substance?
Its Kd is 76.3 µM.

What about the dH [2] of the same substance?
The dH was 133 kJ/mol.

And the dH [3]?
Its dH is 133 kJ/mol.

What about the Kd [4] of the same substance?
Its Kd is 170 µM.

And the dH [4]?
The dH was 152 kJ/mol.

And the Vmax of PvCHS for p-coumaroyl-CoA in the presence of PvCHIL (5:1 molar ratio) against PvCHS alone [5]?
Its Vmax of PvCHS for p-coumaroyl-CoA in the presence of PvCHIL (5:1 molar ratio) against PvCHS alone is 7.7 fold.

Which Vmax of PvCHS for p-coumaroyl-CoA (naringenin plus naringenin chalcone formed) in the presence of PvCHI against PvCHS alone [6] does the source give for “Panicum virgatum chalcone isomerase (PvCHI) (enzyme)” here?
The Vmax of PvCHS for p-coumaroyl-CoA (naringenin plus naringenin chalcone formed) in the presence of PvCHI against PvCHS alone was 24 fold.

And the Vmax of PvCHS for p-coumaroyl-CoA in the three-protein system (PvCHS, PvCHI and PvCHIL) against PvCHS alone; PvCHIL does not compete with PvCHI [6]?
Its Vmax of PvCHS for p-coumaroyl-CoA in the three-protein system (PvCHS, PvCHI and PvCHIL) against PvCHS alone; PvCHIL does not compete with PvCHI is 437 fold.

With “Panicum virgatum chalcone synthase (PvCHS) (enzyme)” as the substance, how does the Kd [7] read?
Its Kd is 26.5 µM.

And the Kd [8]?
Its Kd is 0.637 µM.

What about the stoichiometry N [9] of the same substance?
Its stoichiometry N is 2.
